According to patent US20050059058A1 (CASE WESTERN RESERVE UNIVERSITY, published 2005):

T1: FtsZ protein (native, unlabelled) (Escherichia coli, UniProt P0A9A6 1-383)
T1 construct: also called native FtsZ; immobilized FtsZ
T1 sequence (looked up): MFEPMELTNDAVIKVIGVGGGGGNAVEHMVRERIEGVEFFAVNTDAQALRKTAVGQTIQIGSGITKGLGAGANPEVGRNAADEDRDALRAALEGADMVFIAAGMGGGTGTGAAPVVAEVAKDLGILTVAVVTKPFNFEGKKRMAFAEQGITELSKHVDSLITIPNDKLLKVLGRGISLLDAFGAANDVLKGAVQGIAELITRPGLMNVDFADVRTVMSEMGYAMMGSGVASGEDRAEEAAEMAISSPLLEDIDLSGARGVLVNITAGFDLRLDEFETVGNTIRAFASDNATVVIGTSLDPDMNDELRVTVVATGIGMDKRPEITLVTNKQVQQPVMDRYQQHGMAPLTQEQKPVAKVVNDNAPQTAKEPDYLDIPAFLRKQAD


Legend:
[1] = molecular target: T1, FtsZ protein (native, unlabelled); test: assay not described
ZipA protein of E. coli = molecular target: T2, ZipA protein of E. coli (Escherichia coli, UniProt B1IX59 1-328); test: affinity blotting (far Western) with 32P-labelled probe
T2 construct: Complete ZipA as present in the insoluble (P200) fraction of E. coli, or overproduced from the zipA ORF in a T7 system; on blots after boiling in SDS; also called 50 Kd band
Text: To address the possibility that other proteins interact with FtsZ, the present inventors searched for proteins with affinity to FtsZ. In one approach, a FtsZ derivative (HFKT-FtsZ) was made which carries at the N-terminus a histidine-tag (the his-tag is useful for purification by metal chelate affinity chromatography such as that described in U.S. Pat. No. 5,310,663, hereby incorporated by reference) as well s a substrate site for heart muscle kinase. The purified protein was radiolabeled in vitro by incubation with kinase and [γ³²P]ATP and used as a probe on Western blots.
After the addition of one volume of electrophoresis sample buffer (125 mM Tris.Cl, 4% SDS, 20% glycerol, 1.4 M (β-mercaptoethanol, pH=6.6), samples (e.g., whole cells boiled in sample buffer, or fractionated cells) were held in a boiling water bath for 5 min., and subjected to conventional SDS-PAGE on 0.75 mm thick 10% T/2.7% C gels. Electrophoretic transfer to nitrocellulose filter (0.2μ) was performed in a Genie blotter (Idea Scientific Co.) with regular Towbin buffer (25 mM Tris.Cl, 192 mM glycine, 20% methanol, pH 8.3) at 12 V for 30 min. To monitor the transfer and to visualize the molecular weight standards, filters were treated with the reversible stain Ponceau S (0.1% in 5% acetic acid) for 1 min. Filters were next destained in 10 mM Tris-Cl, rinsed in water, and allowed to dry for 15 min in air.

binding result [1]	binding result (ZipA protein of E. coli)	Binder
binds		soluble fragment of ZipA (the 39-328 peptide) (other, also called portion or fragment of the ZipA protein) not shown
	no binding	HFKT-MinE fusion protein (15.9 kD, encoded by pDB311), 32P-labelled (other, Escherichia coli, 32P-phosphorylated in vitro by bovine heart muscle kinase at the kinase substrate site of the HFKT tag, range 5-88; Negative control probe; also called HKFT-MinE; radiolabelled HKFT-MinE) MGHHHHHHHHHHSSGHIEGRHMDYKDDDDKARRASVEFHMASMTGGQQMGRGSDFFLSRKKNTANIAKERLQIIVAERRRSDAEPHYLPQLRKDILEVICKYVQIDPEMVTVQLEQKDGDISILELNVTLPEAEELK
